Each binder was assayed against T1, WIPI3-Δloop (human, UniProt Q5MNZ6 1-344, Blade 2 B-C loop (75-80) deleted | Blade 6 C-D loop (264-281) deleted) (assay: ITC).
T1 sequence (Q5MNZ6 other isoform, or with tags, fused parts or gaps with the stated changes): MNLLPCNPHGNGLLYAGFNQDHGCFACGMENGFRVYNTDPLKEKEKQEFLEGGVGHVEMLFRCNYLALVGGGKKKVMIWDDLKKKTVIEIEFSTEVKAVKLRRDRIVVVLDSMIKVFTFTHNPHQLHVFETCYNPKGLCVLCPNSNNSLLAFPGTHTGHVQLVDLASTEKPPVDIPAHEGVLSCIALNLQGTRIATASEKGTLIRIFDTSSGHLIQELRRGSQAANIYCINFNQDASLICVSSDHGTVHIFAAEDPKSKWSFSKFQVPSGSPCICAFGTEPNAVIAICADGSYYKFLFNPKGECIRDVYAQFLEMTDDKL

Kd [µM]	Binder
36.9	PRDGEPAVTQLHPGPIVVRDGYFSRPIGSTD [GB1-tagged WIR-peptide V1380A]
75.9	PRDGEPVATQLHPGPIVVRDGYFSRPIGSTD [GB1-tagged WIR-peptide V1381A]
14.1	PRDGEPQVTQLHPGPIVVRDGYFSRPIGSTD [GB1-tagged WIR-peptide V1380Q]
14.2	PRDGEPVVAQLHPGPIVVRDGYFSRPIGSTD [GB1-tagged WIR-peptide T1382A]

Target: T1, WIPI3-Δloop
Test: ITC
Remark: another data set of the same source

Kd [µM]	Binder
379	PRDGEPVVTQLHPGPQVVRDGYFSRPIGSTD [GB1-tagged WIR-peptide I1389Q]
37.2	PRDGEPVVQQLHPGPIVVRDGYFSRPIGSTD [GB1-tagged WIR-peptide T1382Q]
48.9	PRDGEPVVTQLHPGPIVQRDGYFSRPIGSTD [GB1-tagged WIR-peptide V1391Q]
44.4	PRDGEPVVTQLHPGPIVVRAGYFSRPIGSTD [GB1-tagged WIR-peptide D1393A]
391	PRDGEPVVTQLHPGPIVVRDGAFSRPIGSTD [GB1-tagged WIR-peptide Y1395A]
82	PRDGEPVQTQLHPGPIVVRDGYFSRPIGSTD [GB1-tagged WIR-peptide V1381Q]

From PMC7264293 (2020)
